{"source": "patent US5882644A", "about": "“Monoclonal antibodies specific for the platelet derived growth factor β receptor and methods of use thereof” (Protein Design Labs, Inc., priority 1996, dated 1999)", "molecules": {"B1": {"name": "muM4TS.11: murine monoclonal antibody to PDGF-R β, variable regions SEQ ID NOS:10 and 12; epitope in fourth extracellular domain (antibody, V domains shown)", "VL": "METETLLLWVLLLWVPGSTGDIVLTQSPPSLAVSLGQRATISCRASESVDSYGNSFMHWYQQKPGQPPKLLIYRASNLESGIPARFSGGGSRTDFTLTINPVEADDVATYYCQQSNEDPPTFGGGTKLEIK", "VH": "MERHWIFLFLFSVTAGVHSQVQLQQSGAEVAKPGASVKMSCKASGYTFTNCWMHWVKQRPGQGLEWIGYINPTTGYSEYNQNFKDKATLTADKSSNTAYIQLSSLTSEDSAVYYCTSNYGHYDWFANWGQGTLVT"}}, "key": {"[1]": {"test_system": "CHO transfectant cell line expressing PDGF-R β (CHO C4)", "assay": "Inhibition of PDGF BB-induced proliferation (3H-thymidine) of CHO C4 cells", "type": "cell-based, Chinese hamster", "protocol": "To determine the ability of muM4TS.11 and muM4TS.22 to block PDGF-mediated proliferation, a CHO transfectant cell line expressing PDGF-R β (CHO C4) was generated, as described above. Proliferation of this line, as measured by incorporation of ^3 H-thymidine by DNA synthesis, is stimulated several-fold by PDGF BB. The CHO PDGF-R β transfectants were plated in a 96-well tissue culture plate at about 50,000 cells/well in Ham's F-12+10% FCS and incubated for 1-2 days. The medium was removed, and the cells were washed once with serum-free medium (Ham's F-12+1 mg/ml BSA) and incubated in this media for 1-2 days to put them in a quiescent state. The appropriate amount of antibody in serum-free medium was added, and after 1-3 hours, 50 ng/ml PDGF BB was added. After overnight incubation, 1 μCi ^3 H-thymidine was added, and after a final 4 hour incubation, the cells were harvested using a PHD cell harvester (Cambridge Technology) and analyzed with a scintillation counter."}, "[2]": {"test_system": "intima of left common carotid artery after balloon injury", "assay": "Rat carotid balloon injury model, intimal thickening", "type": "in vivo", "settings": "21 days after injury", "from_the_text": "To perform the vascular injury, under sterile conditions and after general anesthesia the left common carotid arteries of S-D rats were exposed. Anesthesia was induced with ketamine and xilaxine by IP injection. Additional anesthesia was given at half a dose every forty-five minutes. Through a midline neck incision the left common, external and internal carotid arteries were exposed. A 2F Fogarty balloon catheter was introduced in the left external carotid artery. The balloon was inflated sufficiently to generate slight resistance and withdrawn 3 times to consistently produce endothelial denudation of the entire length of the left common carotid artery (LCCA), thus simulating vascular injury after balloon angioplasty in human patients. Upon removal of the catheter, the left external carotid artery was ligated with 3.0 silk. The skin was closed with surgical wound clips. […]\nFor measurement of intimal thickening, the left common carotid arteries were sectioned every 3 mm, from the proximal to the distal end. […] Cross-sectional areas for lumen, intima and media of the artery were determined as a mean of the 3 segments with the greatest intimal thickness. […] Differences between placebo or control groups and treated groups were analyzed for statistical significance by analysis of variance and a two-tailed, unpaired Student's t test […]"}}, "note": "Entries after “also recorded” stand apart in the source; their conditions may differ.", "data": [{"molecule": "B1", "values": [{"measurement": "inhibition of PDGF-mediated proliferation compared with another antibody", "setting": "[1]", "value": "about two times more effectively than with HuM4TS.11"}, {"measurement": "inhibition of PDGF BB-induced proliferation", "setting": "[1]; 50 ng/ml PDGF BB, sufficient antibody concentration", "value": "completely inhibited proliferation of the cells induced by PDGF BB; also recorded: almost completely inhibited the stimulation of proliferation by PDGF BB"}, {"measurement": "less thickening of the artery intima than placebo or control groups", "setting": "[2]; high dose: 4 mg bolus, then 2 mg IV every 24 hr for 4 days", "value": "approximately 60%"}, {"measurement": "less thickening of the artery intima than placebo or control groups", "setting": "[2]; low dose: 10% of the high-dose regimen", "value": "approximately 40%"}]}]}
